Reference: patent publication US9725518B2, “Antibodies that bind to Jagged 1” (Cancer Research Technology Limited, priority 2013, dated 2017)
Where a chain is given by its changes, count along the chain named.

B1: J1-183D chimeric: chimeric antibody with unaltered CDRs: J1-183D_VL + J1-183D_VH (antibody, V domains shown)
VH: QVQLQQPGTELVRPGVSVKISCKVSGYAFTDYAIHWIMQSHAKSLEWIGIINTYYGDSKYNQKFKDKATMTVDKSSNTAYMELARLTSEDSAIYYCARGYDGFAYWGQGTLVTVSS
VL: DIQLTQSPASLSASVGETVTFTCRTSENIYSYLTWYQQKQGKSPQLLVYNAKILAAGVPSRFSGYGSGTQFSLKINSLQPEDFGTYYCQHHYDIPWTFGGGTKLEIK
B2: J1-65D variant 16: humanised/de-immunised J1-65D: J1-65D_VL_4 + J1-65D_VH_4 (antibody, V domains shown)
VH: QVQLVQSGAEVKKPGSSVKVSCKASGYTFTDYEMHWVRQAPGQGLEWMGAIQPGGGGTAYAQKFQGRVTITADKSTSTAYMELSSLRSEDTAVYYCTRRGYDDYPFAYWGQGTLVTVSS
VL: DIQMTQSPSSLSASVGDRVTITCRASQGIHNYLAWYQQKPGKAPKLLIYNAKTLADAVPSRFSGSGSGTDYTLTISSLQPEDFATYYCQQFWSAPWTFGQGTKLEIK
B3: J1-183D variant 2: humanised/de-immunised J1-183D: J1-183D_VL_1 + J1-183D_VH_2 (antibody, V domains shown)
VH: QVQLVQSGAELKKPGASVKVSCKVSGYAFTDYAIHWIRQAPGQGLEWMGIINTYYGDSKYAQKFQGRVTMTVDTSTSTAYMELSSLRSEDTAVYYCARGYDGFAYWGQGTLVTVSSASTKGP
VL: DIQMTQSPSSLSASVGDRVTITCRTSENIYSYLTWYQQKPGKAPKLLVYNAKILAAGVPSRFSGSGSGTDFTLTISSLQPEDFATYYCQHHYDIPWTFGGGTKLEIKRT
B4: J1-183D variant 6: humanised/de-immunised J1-183D: J1-183D_VL_2 + J1-183D_VH_2 (antibody, V domains shown)
VH: B3 VH
VL: B3 VL with V48I, I53T, A56S
B5: J1-183D variant 14: humanised/de-immunised J1-183D: J1-183D_VL_4 + J1-183D_VH_2 (antibody, V domains shown)
VH: B3 VH
VL: B3 VL with V48I, N50H, A55D, A56S
B6: J1-183D variant 5: humanised/de-immunised J1-183D: J1-183D_VL_2 + J1-183D_VH_1 (antibody, V domains shown)
VH: B3 VH with A61N, Q65K, G66D, T74K
VL: B3 VL with V48I, I53T, A56S
B7: J1-183D variant 13: humanised/de-immunised J1-183D: J1-183D_VL_4 + J1-183D_VH_1 (antibody, V domains shown)
VH: B3 VH with A61N, Q65K, G66D, T74K
VL: B3 VL with V48I, N50H, A55D, A56S
B8: J1-183D variant 4: humanised/de-immunised J1-183D: J1-183D_VL_1 + J1-183D_VH_4 (antibody, V domains shown)
VH: B3 VH with L11V, V24A, A28T, I37V
VL: B3 VL
B9: J1-183D variant 7: humanised/de-immunised J1-183D: J1-183D_VL_2 + J1-183D_VH_3 (antibody, V domains shown)
VH: B3 VH with I37V
VL: B3 VL with V48I, I53T, A56S
B10: J1-183D variant 16: humanised/de-immunised J1-183D: J1-183D_VL_4 + J1-183D_VH_4 (antibody, V domains shown)
VH: B3 VH with L11V, V24A, A28T, I37V
VL: B3 VL with V48I, N50H, A55D, A56S
B11: J1-183D variant 10: humanised/de-immunised J1-183D: J1-183D_VL_3 + J1-183D_VH_2 (antibody, V domains shown)
VH: B3 VH
VL: B3 VL with V48I, A55D, A56S
B12: J1-183D variant 3: humanised/de-immunised J1-183D: J1-183D_VL_1 + J1-183D_VH_3 (antibody, V domains shown)
VH: B3 VH with I37V
VL: B3 VL
B13: J1-183D variant 11: humanised/de-immunised J1-183D: J1-183D_VL_3 + J1-183D_VH_3 (antibody, V domains shown)
VH: B3 VH with I37V
VL: B3 VL with V48I, A55D, A56S

Tests used:
[1] = Soluble aggregates of transiently expressed antibodies; type: physicochemical; conditions: Protein A purified antibody
From the text: The protein yield of these antibodies, their levels of soluble aggregates and their binding affinity to the immunogen (J1-DE3) are illustrated in (Table 6).

[2] = target: T1, N1 binding to cell surface expressed hJ1 (Homo sapiens, UniProt P78504); assay: Notch binding blocking assay (FACS): N1 EGF11-13 beads staining human J1-expressing cells; parameters: key: +: Complete blocking; X: No blocking
T1 construct: cell expressed full length human J1 (hJ1; HEK293 transfectants); expressed in transfected cells; host or cells: HEK293
T1 sequence (P78504 34-1218): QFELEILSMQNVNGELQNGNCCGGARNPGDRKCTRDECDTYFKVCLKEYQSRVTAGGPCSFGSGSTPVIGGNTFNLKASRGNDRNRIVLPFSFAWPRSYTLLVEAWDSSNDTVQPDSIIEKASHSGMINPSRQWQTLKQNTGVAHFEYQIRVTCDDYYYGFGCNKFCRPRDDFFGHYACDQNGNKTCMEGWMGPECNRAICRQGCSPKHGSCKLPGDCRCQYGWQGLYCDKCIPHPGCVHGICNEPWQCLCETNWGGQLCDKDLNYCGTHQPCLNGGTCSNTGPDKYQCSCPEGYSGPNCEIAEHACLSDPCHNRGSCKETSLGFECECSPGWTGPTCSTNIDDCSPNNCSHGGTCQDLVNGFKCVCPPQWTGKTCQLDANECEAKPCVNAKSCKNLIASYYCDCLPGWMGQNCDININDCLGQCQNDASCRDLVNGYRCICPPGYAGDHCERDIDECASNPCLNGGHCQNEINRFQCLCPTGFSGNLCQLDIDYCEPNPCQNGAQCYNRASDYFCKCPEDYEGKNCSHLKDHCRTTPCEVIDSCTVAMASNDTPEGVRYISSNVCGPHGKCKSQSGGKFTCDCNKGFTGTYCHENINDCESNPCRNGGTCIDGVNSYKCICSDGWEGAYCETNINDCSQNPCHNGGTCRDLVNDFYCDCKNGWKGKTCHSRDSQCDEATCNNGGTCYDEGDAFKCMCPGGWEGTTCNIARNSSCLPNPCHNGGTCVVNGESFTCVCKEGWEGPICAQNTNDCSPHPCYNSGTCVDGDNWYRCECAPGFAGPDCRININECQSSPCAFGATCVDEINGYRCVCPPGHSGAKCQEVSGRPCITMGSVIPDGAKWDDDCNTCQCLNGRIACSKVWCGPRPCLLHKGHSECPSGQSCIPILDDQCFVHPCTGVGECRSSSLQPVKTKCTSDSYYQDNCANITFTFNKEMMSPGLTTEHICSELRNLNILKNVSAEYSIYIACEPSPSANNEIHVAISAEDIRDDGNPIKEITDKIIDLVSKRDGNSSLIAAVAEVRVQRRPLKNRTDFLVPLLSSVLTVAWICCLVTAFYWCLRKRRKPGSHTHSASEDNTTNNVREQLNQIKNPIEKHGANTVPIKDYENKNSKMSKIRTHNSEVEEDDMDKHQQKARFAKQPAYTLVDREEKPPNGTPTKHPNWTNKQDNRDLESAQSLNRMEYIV
Description: To functionally identify mAbs with the capacity to disrupt the J1-N1 protein:protein interaction, hybridoma culture supernatants were tested in a FACS-based binding assay. Biotinylated soluble human N1 EGF11-13 recombinant protein was bound to avidin-coated beads and used to stain J1-expressing cells in the presence or absence of each mAb that recognised cell surface hJ1 by FACS. […] The four blocking antibodies of the invention were also able to block the binding of recombinant […] to a biotin-tagged J1 DSL-EGF3 recombinant protein in an ELISA assay (FIG. 1B). […] The four blocking mAbs of the invention were purified from serum-free culture supernatants and equal concentrations of purified antibodies were used to compare their activity in subsequent assays (unless hybridoma supernatant was specified). Sequence conservation across the DSL domain raised the possibility that the J1 mAbs may also be able to bind the Jagged 2 (J2) protein. Antibody binding specificity was initially tested by immunocytochemical labelling of cytospin samples of hJ1 and hJ2 transfectants (FIG. 2). All antibodies stained J1 transfectants but none stained the J2 transfected cells, and J2 expression in the same experiment was confirmed using a commercial anti-J2 antibody. The specificity of the purified mAbs was further investigated in mammalian cells transfected with hJ2, human Delta-like ligand 4 (hDLL4), or mJ1 (FIG. 3). Transfectants were FACS stained with 10 μg/ml of each of the four blocking mAbs.
To test the blocking efficiencies of the J1 mAbs, purified mAbs were titrated to determine the concentration required to block recombinant N1 binding to cell surface expressed hJ1. Beads coated with a bacterially-expressed N1 EGF11-13 protein were used to stain the hJ1-expressing cells in the presence of various concentrations of mAbs.
The FACS-based binding assay using biotinylated soluble human N1 EGF11-13 recombinant protein bound to avidin-coated fluorescent beads to stain J1-expressing cells was performed using a dilution series of each variant mAb to test their ability to block J1 binding to N1 by FACS (Table 7). […] Thus 12/16 J1-65D1 variants V1-12 and all J1-183D variants have the desired binding and blocking activity.
Human N1 EGF11-13 (411-526) was expressed in E. coli, refolded in vitro and labelled with purple fluorescent avidin-coated beads (Spherotech) as previously described. HEK293 cells transfected with human J1 or B16F10 cells transfected with mouse J1 were stained with N1 fluorescent beads in the presence of J1 antibody supernatants or purified antibody (murine, chimeric or humanised) diluted in HBBS/10% FCS. Cells were washed and re-suspended in staining buffer before being analysed with a FACSCalibur and data analysis with CellQuest. HEK293 cells transfected with human Jagged 2 and B16F10 cells transfected with human and mouse DLL4 were stained similarly to test blocking specificity.

[3] = final antibody concentration 0.2 μg/ml
[4] = final antibody concentration 0.4 μg/ml
[5] = final antibody concentration 0.6 μg/ml
[6] = final antibody concentration 1.0 μg/ml

Molecule | % soluble aggregate [1] | Blocking of Notch1 binding to cell surface Jagged 1 [2, 3] | Blocking of Notch1 binding to cell surface Jagged 1 [2, 4] | Blocking of Notch1 binding to cell surface Jagged 1 [2, 5] | Blocking of Notch1 binding to cell surface Jagged 1 [2, 6] | Blocking of Notch1 binding to cell surface Jagged 1 ([2]; final antibody concentration 2.0 μg/ml)
B1 | 1.41% | X | + (Complete blocking) | + (Complete blocking) | + (Complete blocking) | –
B2 | 5.60% | – | – | – | X | Partial
B3 | 3.58% | X | + (Complete blocking) | + (Complete blocking) | + (Complete blocking) | –
B4 | 4.6% | X | + (Complete blocking) | + (Complete blocking) | + (Complete blocking) | –
B5 | 3.02% | X | + (Complete blocking) | + (Complete blocking) | + (Complete blocking) | –
B6 | 4.38% | X | + (Complete blocking) | + (Complete blocking) | + (Complete blocking) | –
B7 | 3.43% | X | + (Complete blocking) | + (Complete blocking) | + (Complete blocking) | –
B8 | 0.85% | X | + (Complete blocking) | + (Complete blocking) | + (Complete blocking) | –
B9 | 3.92% | X | + (Complete blocking) | + (Complete blocking) | + (Complete blocking) | –
B10 | 0.72% | X | + (Complete blocking) | + (Complete blocking) | + (Complete blocking) | –
B11 | 2.89% | X | + (Complete blocking) | + (Complete blocking) | + (Complete blocking) | –
B12 | 2.87% | X | + (Complete blocking) | + (Complete blocking) | + (Complete blocking) | –
B13 | 2.5% | X | + (Complete blocking) | + (Complete blocking) | + (Complete blocking) | –
